Laboratory results from the supplement of paper PMC12636428.

Test system: Saccharomyces cerevisiae
Test: transcriptional activation domain activity (GFP:mCherry ratio, weighted mean of sorted bins, harmonized to initial dataset scale) (arbitrary fluorescence ratio units); higher = stronger transcriptional activation
Settings: beta-estradiol 1 µM; induction time 4 h
In short: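 In diploid yeast carrying a GFP reporter, barcoded protein tiles fused to an estradiol-inducible synthetic transcription factor were integrated at the URA3 locus. Cultures diluted 1:5 into SC with 1 uM beta-estradiol were kept at 30 °C for 4 hours, then sorted by GFP:mCherry ratio into 8 bins before barcode sequencing. Tiles with under 50 reads were excluded. The activation activity reported here is the read-weighted mean of bin median fluorescence, averaged across barcodes and linearly rescaled to the initial dataset.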

Row | Sequence | transcriptional activation domain activity
1 | RSRSPEPARKKVDVKQEEPLASSKWAKDDDETLRKRESELKEGLLRKKVTASL | 34800
2 | RSSKPSSRFLVLTKQKVYILVTRMVQNAPQTTIERSVGISSISSASVSTLQDD | 29600
3 | RSSLSSPPCPRSRRRMRVRSSTTTSTSPPARSSSADRTRPTSTTTAARPPACP | 22000
4 | RSSRRDRDEDENERHSRHRRENRRRSHSSDERHGDARRRDEKSRHHRSSRHER | 17900
5 | RSSRSKRRSRSPHDSSHKRRSRKEGRRPPSRERDEEDGEKRRHRSSRSHRRRR | 11400
6 | RSSSGKDRDRERDGGRDRNGKSSSSSRRREKERDEDSGDERRKSSSSSRRRRD | 44400
7 | RSSSKKKDASDDEDKHSRRKSSSRKKGSDEEDDKSRHSRSASASKKKDKKSYD | 14300
8 | RSSVGAYIKPKQQVVAVPCVGPHDSGINVLYLCAPSVEEVVMLTRFVILHLGG | 55500
9 | RSTMKIVEEEDQRRRAIRKTCCALCGREEGVSLRCKRCKTVLYCSPSVRGCQL | 33200
10 | RTESYDHMEPVGVDPRWDAFGPFHDYLLQAFPLVHSTLSLTKVNTWGLVYVWP | 47400
11 | RTFLRWTLDTLAQCTTFEVMWLILTGVIQDYIDEYKRNRTLTKLLIEALIKSY | 55500
12 | RTILLASYIFSNIFVCLIVLNDSLKILWWLGDSYWHKIWFFRIWLWANSISFL | 74800
13 | RTKASGSSGEAAAASGGASSSKAEDARAEGGEEAAKPRRSSRLSAKSAGESAG | 15000
14 | RTKDEMKCTSCNAPTSRVCARCKHTLYCSSEHQKKHWKQHRQACVPYGAQLVK | 50600
15 | RTLLVVLISMLYFLTVEMFLPVFYLFDESLYNFLSWILTAFWSRLALWVLGFY | 56000
16 | RTMGKQDPYCAMRLGKEAKKTNTDRRGGQTPRWDQELRFTVHDSPDYYKLKCS | 44300
17 | RTPTYDRRTIIQGLQQAEMNLDNSFKRVSEMILMLMIRMHDWSTLRRRFQMDQ | 45200
18 | RTSDRYLETLDALFVDKFVYAHAWTTFMSTCLKTWRRDCCSSAMLLLLHILCF | 54900
19 | RTSEMIMGFFFKNIVWTFVLFWYQIFCQFNGSMMFEYVLVALYNLIFTSLPII | 62900
20 | RTSRHLTLLFWSPLLFFSILLLLPIFLPLFLRFLLLWFPILLLLPLLCFLLLW | 13000
21 | RTTALGVWFLLIQSLWYFTFGALYIWFFCHTWEYLSTLLVFDYLLRFILCLMF | 68100
22 | RTTALGVWFLSIQFFWYALYGALYIWFFFMPWEKLSVLLAFDYFMRLLLCFMF | 45700
23 | RTTSLGVWFLLIQFLWYGAFGVLYVWFFCQTFEYFNTLLVFDYILRFILCLMF | 51200
24 | RTTSLGVWFLLIQSLWYCAFGVLYVWFFCQTFESFNTLLVLDYILRFILCLMF | 86900
25 | RTYVQYWIQAFPKIARFFTIFFAAMSVTRYKAFMDSPVLALNNLAKRILRMSL | 44500

Row | Sequence | transcriptional activation domain activity
26 | RVEAQVRDRRVEAQVRDRRAEAQVRARDHRSKVQVRNRQSKAEAEAQVRSQAR | 33900
27 | RVEEEGKSGVPAGDRFCGISLRPGILTDGEAGGVKVGKIGTGGKTARATVAES | 22900
28 | RVELLLRSFKVFTLKTGEQCLDYLGDKFRVVLNLPEDWTNTAVGAWLVQKVIL | 39700
29 | RVFLFRLMLSLIYTFLGSLCVTGAVWAYRVNWKVNGNQFVLSWMAIWLFAHCN | 44800
30 | RVFTKIRRLLIRLKKHDIHAVCAALLTYIFWPTAFLRAYCLDSIYYDPASRDK | 54100
31 | RVFTVPGKCFFDALAADSTDASCTEESLKKIWNELHTTSSEIEPWSNGYIDIS | 98000
32 | RVHMLLCICLIATFVGVTVDLALEILFRLSQFSESPRFSPTGSRTLILTLPLF | 45300
33 | RVHPTCLKEFGTADFICGQCNSIYRSGRFLRIARCICLMCHLLSLASTVGLIF | 57300
34 | RVLETPAIFPSFLNTALFPMPFIVGLILFFFFALFPFPLPFLSPSFFPSILQY | 43200
35 | RVLNLTIHCAIWVRLYASLAWQKFADTLVHLELQFFTSSVLRAIPQNVCCRHL | 38100
36 | RVLVILRMWAFCYRGNGRTKYAHEMLHLLHNLICVWTKELRHIVLQNWLANPQ | 61100
37 | RVPPNSSQKTGEPSSSSTKPVASSAVRNRVPPNSSQKTGEPSSSSTKPVASSA | 52900
38 | RVPWSSAISKRLQTYHEMLQSFPFVWRMIKDVLGLKSCRYLLVLYLFCEAVTS | 62000
39 | RVRAAERAGQQAGREGRRGRQRGEHARRGGRAAHERAAQAHHRAPVPVPVRVP | 62200
40 | RVSDYSMAQFRFLLKFLLVHGRWNYIRICKYTISTFWKELLFYLTQAMYQRWN | 28800
41 | RVVLRCLFLAYECIEEADVKSTLSYTIEVAFNLITSTCDYIGPVAMSHALRAG | 53900
42 | RVVSAFGWKADKHLGFALLKLCLEDRRIRSPMASLMLLAYYTVLTSLCPQVLA | 60900
43 | RVVVVTDAFQKMDHFYWSLQAWLMYRFDALSACSTFAMTLLALYDDLSPGLTA | 83700
44 | RVVYVSCNVHTQARDVGVLVRGEVEDVAANSNNTNMSTTTKNKTGGGVRYEIE | 23600
45 | RVYKRDPMLYLSSGWQYQGHFVYVTRLDVIHLSSWLRVFCFQIQHFSSVWWVL | 59000
46 | RWCARCMLLTATIHMGYFFSAWAPYDYIGYQLKNNKIVWKGLAAWCTLVWIVF | 47700
47 | RWCARCMLLTATLHMGYFFSAWAPYDYIGYQLKNNKIVWKGLAAWCTLVWIVF | 93300
48 | RWGGILNTHLCLLSTLVLCCTMLRFCINVIWTDTFVNWEMGWRTVCPWLLILL | 44600
49 | RWGLGRWWVPFQLFVIFWDLDNWPVFGLRPWVFEFMEGPLEYVLSFLVLFTAK | 67500
50 | RWINSTIHNLFEVVMLPDLCGFCCFSMRFVVLLDLIGTLSLPVSFVYLVYLIY | 64400

Row | Sequence | transcriptional activation domain activity
51 | RWIRVRKHMVLAATLVEPFTESVVLSIICASSLKYLFGVWLWISICVHFALWA | 48100
52 | RWQYATLFFSGVSGGATLALSLCVITHPSLLTRIVVVCIFLTLISAFTILPIS | 38500
53 | RWSYLRTSEMILTFFYKNIMWTLVLFWYQLFCGFSGTMMFDYSYITLYNLVFT | 63200
54 | RYEAQGGGYKDTGDNKNKAKKGTPERKTKEDGKEEEEKGDKKEEAKKEEGKKE | 22800
55 | RYIATGRGFATTRISFSILFSRFAGPSIYLGMRTLLMLLYVTLSFWTPYLIYF | 54700
56 | RYLKCGGHVKHFFDLSRRADLSLEWLRRYPMEAVITDQIVSWLCHICLRQMRV | 46000
57 | RYLLLSIRDWPCIYIHDLFVFIVSLITDVPDDFLILNFQDLLFFFFVFVFLIF | 66200
58 | RYLNITGRCRCSLQDLSFSVLLIRSLGAPLVELHVCCLYWWFGAYRLRFIFFI | 55000
59 | RYLRHIKNIVFVLVLLNYWSKLYNTVLIGGPVRAVHDFKTYLIRIVFRQLRRL | 47300
60 | RYLYAAMNLLSIINPIFSLIQFVIACFLVAGNLSLVYVRVWGPIVLLSLFLFD | 45800
61 | RYNHLFDETLVAICVLLGRIGGRFIVDDFEVMWCHNLFRTKVVKAIVVFALAY | 39600
62 | RYPFILFPFYSLLSHFLLLLTEIALCLKYCLLLSLCSPILLFLLVFLLLAFCL | 47600
63 | RYPPKHILISQSLILILLCFHLSFVWNKEFAPFNIESRTLFICFLGYLPILLL | 36900
64 | RYWTFMTFLSIFLSIFACFLWIAVYSLFPTFFFDWELIILYSTMNFWATVVVV | 51700
65 | SAAAAAGTGAAAAATAGGKTGETQAAGAKKLKLSEEGKGKEKAAAAAAAEDQK | 22100
66 | SAAAAAPVAAAAAPAAASSIAPAVVGGAVGAAAIGGGAAIAASSDKAAAAAAA | 37700
67 | SAASRVAEEKSGDDEAAAAPGTGATPEGVKRKTTRGGKKNRSKKEGGAAAAAA | < 6570
68 | SADDSAGEARQREKSEESGTRRSRKSHDRESKEGAEGADEAESWERSSKKKSR | 29600
69 | SADIERRHHKKNHKGGANAGNAAGNNNNAGGNAGNATAAAANRRDVVEDLQSR | 13900
70 | SADTQKEEGKRAKVEKNRRGKRDGHKAGRFSGGRRKERGEASTQAGAAAAGAN | 37500
71 | SAEFRANEFARHPLLDALLLSLMVDGSSTLLEIEVATLVCLLRQFAIHAPDTL | 51800
72 | SAEHQTEAYESDGGRQCVRLLLTSYCSPILIVALHPVLPGRFLCVVKLATQKS | 39900
73 | SAFDLADAIEKQSVSKLEKFSTTALSLELNCLVCLIKVLLKMYLSSDPAFEPY | 42200
74 | SAFGGGGGASAFGSGTSAFGSGANTGSAFGGTASTPSTASAFGGGSAFGGAGS | 32700
